Measurements from paper PMC8294757 (Science Advances, 2021).

Target: ELMO1-DOCK5 (1 to 1642) complex (human, UniProt Q9H7D0 1-1642; Q92556 1-727)
Experiment: SPR

Chain of ELMO1-DOCK5 (1 to 1642) complex (Q9H7D0 1-1642, chain 1 of 2): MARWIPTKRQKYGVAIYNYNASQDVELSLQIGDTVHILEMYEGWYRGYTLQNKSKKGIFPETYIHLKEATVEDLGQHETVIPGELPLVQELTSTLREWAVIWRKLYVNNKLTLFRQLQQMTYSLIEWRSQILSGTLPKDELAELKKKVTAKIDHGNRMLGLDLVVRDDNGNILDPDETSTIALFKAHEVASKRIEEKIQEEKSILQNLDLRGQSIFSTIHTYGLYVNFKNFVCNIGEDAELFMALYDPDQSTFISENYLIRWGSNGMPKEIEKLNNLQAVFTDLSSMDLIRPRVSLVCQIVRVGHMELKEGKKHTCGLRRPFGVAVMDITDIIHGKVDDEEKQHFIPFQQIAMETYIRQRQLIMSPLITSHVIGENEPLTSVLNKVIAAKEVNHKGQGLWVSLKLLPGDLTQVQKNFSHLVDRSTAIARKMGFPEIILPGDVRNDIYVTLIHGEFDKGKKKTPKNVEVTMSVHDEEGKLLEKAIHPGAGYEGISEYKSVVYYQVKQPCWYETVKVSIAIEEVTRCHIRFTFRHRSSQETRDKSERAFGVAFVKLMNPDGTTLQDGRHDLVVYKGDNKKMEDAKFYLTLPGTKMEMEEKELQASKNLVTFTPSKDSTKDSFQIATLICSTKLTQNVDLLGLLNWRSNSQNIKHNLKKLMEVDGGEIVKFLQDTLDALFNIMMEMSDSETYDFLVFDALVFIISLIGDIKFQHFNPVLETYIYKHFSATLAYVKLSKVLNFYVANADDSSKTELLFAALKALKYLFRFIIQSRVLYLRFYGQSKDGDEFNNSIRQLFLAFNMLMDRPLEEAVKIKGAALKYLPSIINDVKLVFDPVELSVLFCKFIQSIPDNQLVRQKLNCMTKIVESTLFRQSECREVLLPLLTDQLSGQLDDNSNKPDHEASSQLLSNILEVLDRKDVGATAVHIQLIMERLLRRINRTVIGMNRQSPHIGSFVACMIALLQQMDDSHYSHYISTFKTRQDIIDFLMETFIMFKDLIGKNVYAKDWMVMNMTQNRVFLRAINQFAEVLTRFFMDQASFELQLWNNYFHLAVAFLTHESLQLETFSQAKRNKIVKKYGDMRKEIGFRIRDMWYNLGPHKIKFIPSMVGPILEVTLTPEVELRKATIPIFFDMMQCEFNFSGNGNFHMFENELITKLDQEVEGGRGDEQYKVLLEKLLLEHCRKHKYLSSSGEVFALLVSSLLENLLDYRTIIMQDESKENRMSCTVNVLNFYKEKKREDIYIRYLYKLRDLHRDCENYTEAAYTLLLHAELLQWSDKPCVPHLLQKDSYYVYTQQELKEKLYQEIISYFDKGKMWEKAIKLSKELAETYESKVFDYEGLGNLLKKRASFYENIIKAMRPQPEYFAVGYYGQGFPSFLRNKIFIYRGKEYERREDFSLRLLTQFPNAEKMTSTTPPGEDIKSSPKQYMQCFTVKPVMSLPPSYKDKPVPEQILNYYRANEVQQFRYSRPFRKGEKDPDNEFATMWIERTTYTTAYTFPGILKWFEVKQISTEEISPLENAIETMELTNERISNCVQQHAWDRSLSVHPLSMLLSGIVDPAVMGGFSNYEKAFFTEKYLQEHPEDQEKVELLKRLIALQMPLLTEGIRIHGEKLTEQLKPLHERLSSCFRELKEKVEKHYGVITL
Chain of ELMO1-DOCK5 (1 to 1642) complex (Q92556 whole entry, chain 2 of 2): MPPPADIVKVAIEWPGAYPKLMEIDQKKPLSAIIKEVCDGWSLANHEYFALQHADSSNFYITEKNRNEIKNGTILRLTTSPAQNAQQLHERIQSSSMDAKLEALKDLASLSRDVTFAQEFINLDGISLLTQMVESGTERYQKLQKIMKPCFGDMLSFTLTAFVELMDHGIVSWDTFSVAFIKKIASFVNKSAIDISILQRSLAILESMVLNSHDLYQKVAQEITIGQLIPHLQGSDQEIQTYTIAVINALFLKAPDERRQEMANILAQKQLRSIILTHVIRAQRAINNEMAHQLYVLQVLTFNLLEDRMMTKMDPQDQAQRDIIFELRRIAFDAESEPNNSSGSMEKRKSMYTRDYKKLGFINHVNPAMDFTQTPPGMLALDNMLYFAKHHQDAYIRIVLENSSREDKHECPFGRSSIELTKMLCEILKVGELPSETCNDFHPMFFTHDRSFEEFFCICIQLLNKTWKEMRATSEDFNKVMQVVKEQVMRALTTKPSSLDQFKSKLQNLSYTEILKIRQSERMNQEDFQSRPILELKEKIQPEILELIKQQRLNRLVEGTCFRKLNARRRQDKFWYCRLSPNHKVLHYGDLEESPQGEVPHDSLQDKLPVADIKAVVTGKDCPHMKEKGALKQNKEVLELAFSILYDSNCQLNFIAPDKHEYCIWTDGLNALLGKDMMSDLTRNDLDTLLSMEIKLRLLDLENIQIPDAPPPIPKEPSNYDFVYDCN

Kd: 10.3 µM
B1: human RhoG (residues 1 to 184) Q61L mutant, GTP-bound (natural protein)
chain: not shown
